Experimental data reported in publication PMC2720063 (Biochemistry, 2009).

Molecular target: T1, Ror2(518–525) peptide (human)
T1 chain: REEFRHEA
Assay: crystal structure

- binding result: binds
B1: PFA1 Fab (Fab fragment of the monoclonal anti-Aβ antibody PFA1, Protofibril antibody 1) (Fab, V domains shown)
VH: QVTLKESGPGILKPSQTLSLTCSFSGFSLSTSGMGVGWIRQPSGKGLEWLAHIWWDDDRSYNPSLKSQLTISKDAARNQVFLRITSVDTADTATYYCVRRAHTTVLGDWFAYWGQGTLVTVSA
VL: DVLMTQTPLSLPVSLGDQASISCRSSQSIVHSNGNTYLEWYLQKPGQSPKLLIYKVSNRFSGVPDRFSGSGSGTDFTLKISRVEAEDLGVYYCFQGSHVPLTFGAGTKLELK
